Experimental data as given in US20200199241A1 (Chugai, published 2020).
Positions count from the first letter of the chain named.

B1: IgG1-F801 (antibody)
heavy: QVQLQESGPGLVKPSETLSLTCAVSGHSISHDHAWSWVRQPPGEGLEWIGFISYSGITNYNPSLQGRVTISRDNSKNTLYLQMNSLRAEDTAVYYCARSLARTTAMDYWGEGTLVTVSSASTKGPSVFPLAPSSKSTSGGTAALGCLVKDYFPEPVTVSWNSGALTSGVHTFPAVLQSSGLYSLSSVVTVPSSSLGTQTYICNVNHKPSNTKVDKKVEPKSCDKTHTCPPCPAPELLGGPSVFLFPPKPKDTLYISRTPEVTCVVVDVSHEDPEVKFNWYVDGVEVHNAKTKPREEQYNSTYRVVSVLTVLHQDWLTGKEYKCKVSNKALPAPIEKTISKAKGQPREPQVYTLPPSRDELTKNQVSLTCLVKGFYPSDIAVEWESNGQPENNYKTTPPVLDSDGSFFLYSKLTVDKSRWQQGNVFSCSVMHEALHYHYTQKSLSLSP
light: not shown
notes: EU numbering; copies: 2 + 2
B2: IgG1-F811 (antibody)
heavy: B1 heavy with T317N, E382S
light: not shown
notes: EU numbering; copies: 2 + 2
B3: IgG1-F814 (antibody)
heavy: B1 heavy with T317N, Y438I
light: not shown
notes: EU numbering; copies: 2 + 2
B4: IgG1-F862 (antibody)
heavy: B1 heavy with D282S, T317N
light: not shown
notes: EU numbering; copies: 2 + 2
B5: IgG1-F858 (antibody)
heavy: B1 heavy with D282N, T317N
light: not shown
notes: EU numbering; copies: 2 + 2
B6: IgG1-F831 (antibody)
heavy: B1 heavy with P240D, T252V, R257A, T317N
light: not shown
notes: EU numbering; copies: 2 + 2
B7: IgG1-F882 (antibody)
heavy: B1 heavy with T317N, Y438L
light: not shown
notes: EU numbering; copies: 2 + 2
B8: IgG1-F806 (antibody)
heavy: B1 heavy with T317N, N386A
light: not shown
notes: EU numbering; copies: 2 + 2
B9: IgG1-F809 (antibody)
heavy: B1 heavy with S256T, T258S, T317N
light: not shown
notes: EU numbering; copies: 2 + 2
B10: IgG1-F840 (antibody)
heavy: B1 heavy with P240D, T252V, R257M, T317N
light: not shown
notes: EU numbering; copies: 2 + 2
B11: IgG1-F870 (antibody)
heavy: B1 heavy with L237K, S241K, T309Q, Q313A, T317N
light: not shown
notes: EU numbering; copies: 2 + 2
B12: IgG1-F807 (antibody)
heavy: B1 heavy with T317N, N391A
light: not shown
notes: EU numbering; copies: 2 + 2
B13: IgG1-F878 (antibody)
heavy: B1 heavy with T317N, Y438F
light: not shown
notes: EU numbering; copies: 2 + 2
B14: IgG1-F837 (antibody)
heavy: B1 heavy with P240D, T252V, R257I, T317N
light: not shown
notes: EU numbering; copies: 2 + 2
B15: IgG1-F853 (antibody)
heavy: B1 heavy with D282H, T317N
light: not shown
notes: EU numbering; copies: 2 + 2
B16: IgG1-F819 (antibody)
heavy: B1 heavy with P240D, N288E, T317N
light: not shown
notes: EU numbering; copies: 2 + 2
B17: IgG1-F844 (antibody)
heavy: B1 heavy with P240D, T252V, R257S, T317N
light: not shown
notes: EU numbering; copies: 2 + 2
B18: IgG1-F873 (antibody)
heavy: B1 heavy with L237R, S241K, N288E, T317N
light: not shown
notes: EU numbering; copies: 2 + 2
B19: IgG1-F872 (antibody)
heavy: B1 heavy with L237K, S241K, N288E, T317N
light: not shown
notes: EU numbering; copies: 2 + 2
B20: IgG1-F867 (antibody)
heavy: B1 heavy with T317N, N386A, N391A
light: not shown
notes: EU numbering; copies: 2 + 2
B21: IgG1-F880 (antibody)
heavy: B1 heavy with T317N, Y438H
light: not shown
notes: EU numbering; copies: 2 + 2
B22: IgG1-F855 (antibody)
heavy: B1 heavy with D282K, T317N
light: not shown
notes: EU numbering; copies: 2 + 2
B23: IgG1-F812 (antibody)
heavy: B1 heavy with T317N, E384V
light: not shown
notes: EU numbering; copies: 2 + 2
B24: IgG1-F813 (antibody)
heavy: B1 heavy with T317N, S426E
light: not shown
notes: EU numbering; copies: 2 + 2
B25: IgG1-F808 (antibody)
heavy: B1 heavy with T317N, N391A, N392A
light: not shown
notes: EU numbering; copies: 2 + 2
B26: IgG1-F850 (antibody)
heavy: B1 heavy with D282E, T317N
light: not shown
notes: EU numbering; copies: 2 + 2
B27: IgG1-F815 (antibody)
heavy: B1 heavy with T317N, T439R
light: not shown
notes: EU numbering; copies: 2 + 2
B28: IgG1-F883 (antibody)
heavy: B1 heavy with T317N, Y438M
light: not shown
notes: EU numbering; copies: 2 + 2
B29: IgG1-F868 (antibody)
heavy: B1 heavy with G238A, S241D, N288E, T309Q, Q313A, T317N
light: not shown
notes: EU numbering; copies: 2 + 2
B30: IgG1-F860 (antibody)
heavy: B1 heavy with D282Q, T317N
light: not shown
notes: EU numbering; copies: 2 + 2
B31: IgG1-F849 (antibody)
heavy: B1 heavy with D282A, T317N
light: not shown
notes: EU numbering; copies: 2 + 2
B32: IgG1-F839 (antibody)
heavy: B1 heavy with P240D, T252V, R257L, T317N
light: not shown
notes: EU numbering; copies: 2 + 2
B33: IgG1-F847 (antibody)
heavy: B1 heavy with P240D, T252V, R257W, T317N
light: not shown
notes: EU numbering; copies: 2 + 2
B34: IgG1-F838 (antibody)
heavy: B1 heavy with P240D, T252V, R257K, T317N
light: not shown
notes: EU numbering; copies: 2 + 2
B35: IgG1-F841 (antibody)
heavy: B1 heavy with P240D, T252V, R257N, T317N
light: not shown
notes: EU numbering; copies: 2 + 2
B36: IgG1-F852 (antibody)
heavy: B1 heavy with D282G, T317N
light: not shown
notes: EU numbering; copies: 2 + 2
B37: IgG1-F828 (antibody)
heavy: B1 heavy with P240D, T252V, I255V, T317N
light: not shown
notes: EU numbering; copies: 2 + 2
B38: IgG1-F848 (antibody)
heavy: B1 heavy with P240D, T252V, R257Y, T317N
light: not shown
notes: EU numbering; copies: 2 + 2
B39: IgG1-F804 (antibody)
heavy: B1 heavy with T317Y
light: not shown
notes: EU numbering; copies: 2 + 2
B40: IgG1-F810 (antibody)
heavy: B1 heavy with T317N, A380V
light: not shown
notes: EU numbering; copies: 2 + 2
B41: IgG1-F836 (antibody)
heavy: B1 heavy with P240D, T252V, R257H, T317N
light: not shown
notes: EU numbering; copies: 2 + 2
B42: IgG1-F822 (antibody)
heavy: B1 heavy with P240D, T252Y, W315Y, T317N
light: not shown
notes: EU numbering; copies: 2 + 2
B43: IgG1-F805 (antibody)
heavy: B1 heavy with T317N, N327A
light: not shown
notes: EU numbering; copies: 2 + 2
B44: IgG1-F881 (antibody)
heavy: B1 heavy with T317N, Y438K
light: not shown
notes: EU numbering; copies: 2 + 2
B45: IgG1-F843 (antibody)
heavy: B1 heavy with P240D, T252V, R257Q, T317N
light: not shown
notes: EU numbering; copies: 2 + 2
B46: IgG1-F817 (antibody)
heavy: B1 heavy with P240D, T252V, T309Q, Q313A, T317N
light: not shown
notes: EU numbering; copies: 2 + 2
B47: IgG1-F834 (antibody)
heavy: B1 heavy with P240D, T252V, R257F, T317N
light: not shown
notes: EU numbering; copies: 2 + 2
B48: IgG1-F820 (antibody)
heavy: B1 heavy with L237K, S241K, T317N
light: not shown
notes: EU numbering; copies: 2 + 2
B49: IgG1-F823 (antibody)
heavy: B1 heavy with P240D, T252Y, W315F, T317N
light: not shown
notes: EU numbering; copies: 2 + 2
B50: IgG1-F832 (antibody)
heavy: B1 heavy with P240D, T252V, R257D, T317N
light: not shown
notes: EU numbering; copies: 2 + 2
B51: IgG1-F816 (antibody)
heavy: B1 heavy with P240D, T252V, T309P, T317N
light: not shown
notes: EU numbering; copies: 2 + 2
B52: IgG1-F871 (antibody)
heavy: B1 heavy with L237R, S241K, T309Q, Q313A, T317N
light: not shown
notes: EU numbering; copies: 2 + 2
B53: IgG1-F879 (antibody)
heavy: B1 heavy with T317N, Y438G
light: not shown
notes: EU numbering; copies: 2 + 2
B54: IgG1-F861 (antibody)
heavy: B1 heavy with D282R, T317N
light: not shown
notes: EU numbering; copies: 2 + 2
B55: IgG1-F821 (antibody)
heavy: B1 heavy with L237R, S241K, T317N
light: not shown
notes: copies: 2 + 2
B56: IgG1-F803 (antibody)
heavy: B1 heavy with T317W
light: not shown
notes: EU numbering; copies: 2 + 2
B57: IgG1-F833 (antibody)
heavy: B1 heavy with P240D, T252V, R257E, T317N
light: not shown
notes: EU numbering; copies: 2 + 2
B58: IgG1-F863 (antibody)
heavy: B1 heavy with D282T, T317N
light: not shown
notes: EU numbering; copies: 2 + 2
B59: IgG1-F877 (antibody)
heavy: B1 heavy with T317N, Y438E
light: not shown
notes: EU numbering; copies: 2 + 2
B60: IgG1-F875 (antibody)
heavy: B1 heavy with T317N, Y438A
light: not shown
notes: EU numbering; copies: 2 + 2

target: T1, soluble human FcRn complexed with β2-microglobulin (human, UniProt P61769 21-119, limits assumed); test: Biacore SPR, pH 7.0;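 further: test antibodies captured on a Protein L chip with human FcRn flowed over as analyte, KD obtained as the ratio of dissociation to association rate constants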
T1 construct: also called hFcRn

| Kd [nM] | Binder |
| --- | --- |
| 440 | B1 |
| 490 | B2 |
| 120 | B3 |
| 300 | B4 |
| 320 | B5 |
| 1600 | B6 |
| 130 | B7 |
| 310 | B8 |
| 220 | B9 |
| 420 | B10 |
| 73 | B11 |
| 320 | B12 |
| 190 | B13 |
| 560 | B14 |
| 320 | B15 |
| 140 | B16 |
| 1300 | B17 |
| 120 | B18 |
| 130 | B19 |
| 280 | B20 |

| Kd [nM] | Binder |
| --- | --- |
| 390 | B21 |
| 320 | B22 |
| 270 | B23 |
| 280 | B24 |
| 320 | B25 |
| 290 | B26 |
| 550 | B27 |
| 210 | B28 |
| 20 | B29 |
| 330 | B30 |
| 330 | B31 |
| 340 | B32 |
| 340 | B33 |
| 430 | B34 |
| 1100 | B35 |
| 330 | B36 |
| 2500 | B37 |
| 830 | B38 |
| 400 | B39 |
| 220 | B40 |

| Kd [nM] | Binder |
| --- | --- |
| 500 | B41 |
| 1100 | B42 |
| 300 | B43 |
| 310 | B44 |
| 660 | B45 |
| 98 | B46 |
| 810 | B47 |
| 340 | B48 |
| 1100 | B49 |
| 2600 | B50 |
| 360 | B51 |
| 71 | B52 |
| 920 | B53 |
| 320 | B54 |
| 310 | B55 |
| 360 | B56 |
| 800 | B57 |
| 270 | B58 |
| 830 | B59 |
| 480 | B60 |
